Kd data for one molecule are collected here from US20070160605A1 (RINAT NEUROSCIENCE, published 2007).

“And” between values parts separate entries of the source, which are not always exact repeats. Equal values may be shown once.

The experiment concerns the target T1, human NGF (human, UniProt P01138 122-241, limits assumed).
T1 construct: also called hNGF; human nerve growth factor
Briefly: binding affinity, method not stated.

T1 sequence (P01138 122-241 limits assumed): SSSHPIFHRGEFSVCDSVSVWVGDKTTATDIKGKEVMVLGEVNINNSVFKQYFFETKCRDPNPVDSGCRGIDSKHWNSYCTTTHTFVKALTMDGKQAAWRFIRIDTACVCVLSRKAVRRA

B1: humanized anti-NGF antibody E3 (antibody, V domains shown)
VH: QVQLQESGPGLVKPSETLSLTCTVSGFSLIGYDLNWIRQPPGKGLEWIGIIWGDGTTDYNSAVKSRVTISKDTSKNQFSLKLSSVTAADTAVYYCARGGYWYATSYYFDYWGQGTLVTVS
VL: DIQMTQSPSSLSASVGDRVTITCRASQSISNNLNWYQQKPGKAPKLLIYYTSRFHSGVPSRFSGSGSGTDFTFTISSLQPEDIATYYCQQEHTLPYTFGQGTKLEIK
As to B1, the Kd was ~0.07 nM and ~0.1 nM.

Broadly, the Kd is the equilibrium constant for the complex coming apart. Lower therefore signals tighter binding.
